Data taken from patent publication US20220380801A1, “TRIPARTITE SYSTEMS FOR PROTEIN DIMERIZATION AND METHODS OF USE” (priority 2019, published 2022).
Read-outs that look alike come from different tables or passages of the source.

Key:
Details in all cases: remark: other sources report otherwise
[1] = target: T1, HCV NS3/4A PR (S139A):simeprevir complex (Hepatitis C virus subtype 1a)
[2] = target: T1, HCV NS3/4A PR (S139A):simeprevir …; remark: listed apart in the source
[3] = target: T1, HCV NS3/4A PR (S139A):simeprevir …; remark: listed apart in the source
[4] = target: HCV NS3/4A PR K136H (S139A background), in the presence of simeprevir (Hepatitis C virus subtype 1a)
[5] = target: T1, HCV NS3/4A PR (S139A):simeprevir …; remark: listed apart in the source
[6] = target: T1, HCV NS3/4A PR (S139A):simeprevir …; experiment: HTRF, with simeprevir
[7] = target: T1, HCV NS3/4A PR (S139A):simeprevir …; experiment: phage ELISA
[8] = target: T1, HCV NS3/4A PR (S139A):simeprevir …; remark: listed apart in the source
[9] = target: T1, HCV NS3/4A PR (S139A):simeprevir …; experiment: SPR Biacore 8K, PRSIM immobilised, protease flowed with 10 nM simeprevir

B1: PRSIM_23 (designed binder)
chain: RLDAPSQIEVKDVTDTTALITWVDPRYDDIWWFELTYGIKDVPGDRTTIKLYLNDPYYSIGNLKPDTEYEVSLISYTGDSYSRSGSNPAKITFKTGL
Kd [1]: 5.4 nM
Simeprevir EC50 for induction of heterodimerisation [2]: 4.03 nM
EC50 (read off the curve) [3]: 2 nM
EC50 (read off the curve) [4]: 4 nM
EC50 (read off the curve) [5]: 3 nM
HTRF max. signal (% delta F) [6]: 1570 % delta F
Binding fold change [(HCV protease + Simeprevir binding)/HCV protease alone] [7]: 23.8 fold
Simeprevir EC50 for induction of heterodimerisation [8]: 4.53 nM
Kd [9]: 6.3 nM
koff [9]: 0.0318 s⁻¹
kon [9]: 5.03e+06 M⁻¹ s⁻¹
